# According to publication PMC4769845, “Structures of EccB1 and EccD1 from the core complex of the mycobacterial ESX-1 type VII secretion system” (BMC Structural Biology, 2016):
# Legend:
# [1] = target: the molecule itself; assay: crystal structure; cyto-EccD1mt alone; sitting drop, 0.1 M Tris-HCl pH 8.5, 0.2 M Mg chloride, 30 % PEG4000; two molecules in the asymmetric unit; 1.88 Å
# [2] = target: the molecule itself; assay: crystal structure; MBP-cyto-EccD1mt fusion, maltose-bound; sitting drop, 0.1 M HEPES pH 7.5, 1.4 M Na citrate; two molecules in the asymmetric unit; 2.20 Å
Protein,binding result [1],binding result [2]
"cytoplasmic domain of EccD1 from M. tuberculosis (cyto-EccD1mt) (domain or fragment, also called Rv3877; not shown: His6, N-terminal, cleaved) ATTRVTILTGRRMTDLVLPAAVPMETYIDDTVAVLSEVLEDTPADVLGGFDFTAQGVWAFARPGSPPLKLDQSLDDAGVVDGSLLTLVS",binds,
"cyto-EccD1mt fused to maltose binding protein (MBP-cyto-EccD1mt) (domain or fragment, EccD1 (Rv3877) of Mycobacterium tuberculosis H37Rv, cytoplasmic ubiquitin-like domain, residues 21-109, the same DNA fragment as in m1, placed after MBP; also called MBP fusion protein; not shown: His6, N-terminal, cleaved; MBP, N-terminal, kept) ATTRVTILTGRRMTDLVLPAAVPMETYIDDTVAVLSEVLEDTPADVLGGFDFTAQGVWAFARPGSPPLKLDQSLDDAGVVDGSLLTLVS",,binds
